# From patent US11779606B2, “Peptides and combination of peptides of non-canonical origin for use in immunotherapy against different types of cancers” (Immatics Biotechnologies GmbH, priority 2018, dated 2023)
# Key:
# HLA-A*02:01 = HLA-A*02:01 (Homo sapiens, UniProt P04439, D140Y/D185E/D98H/E176V/E277Q/G131W/G231S/I119V/I121R/I166T/I218V/L300P/L318F/N151K/N90K/P208A/P217A/Q86G/Q94H/R138H/R169H/T345S); assay: MHC binding assay (UV-ligand exchange, β2m ELISA); conditions: MHC class I binding score; peptide exchange yield, binding to HLA-A*02:01, UV-ligand exchange with β2m ELISA
# From the text: Candidate peptides for T cell based therapies according to the present invention were further tested for their MHC binding capacity (affinity).
# The individual peptide-MHC complexes were produced by UV-ligand exchange, where a UV-sensitive peptide is cleaved upon UV-irradiation and exchanged with the peptide of interest as analyzed. Only peptide candidates that can effectively bind and stabilize the peptide-receptive MHC molecules prevent dissociation of the MHC complexes. To determine the yield of the exchange reaction, an ELISA was performed based on the detection of the light chain (β2m) of stabilized MHC complexes. The assay was performed as generally described in Rodenko et al. (Rodenko et al., 2006).
# 96 well MAXISorp plates (NUNC) were coated over night with 2 ug/ml streptavidin in PBS at room temperature, washed 4× and blocked for 1h at 37° C. in 2% BSA containing blocking buffer. Refolded HLA-A*02:01/MLA-001 monomers served as standards, covering the range of 15-500 ng/ml. Peptide-MHC monomers of the UV-exchange reaction were diluted 100 fold in blocking buffer. Samples were incubated for 1 h at 37° C., washed four times, incubated with 2 ug/ml HRP conjugated anti-β2m for 1h at 37° C., washed again and detected with TMB solution that is stopped with […]. Absorption was measured at 450 nm. Candidate peptides that show a high exchange yield (preferably higher than 50%, most preferred higher than 75%) are generally preferred for a generation and production of antibodies or fragments thereof, and/or T cell receptors or fragments thereof, as they show sufficient avidity to the MHC molecules and prevent dissociation of the MHC complexes.
# CD8+ T cells = assay: In vitro T-cell priming assay (immunogenicity) with artificial APCs loaded with peptide/MHC complexes and anti-CD28; type: cell-based, human; conditions: CD8+ T cells of healthy HLA-A*02 donors, multimer staining, Table 13b
# From the text: In order to obtain information regarding the immunogenicity of the TUMAPs of the present invention, the inventors performed investigations using an in vitro T-cell priming assay based on repeated stimulations of CD8+ T cells with artificial antigen presenting cells (aAPCs) loaded with peptide/MHC complexes and anti-CD28 antibody.
# In order to perform in vitro stimulations by artificial antigen presenting cells loaded with peptide-MHC complex (pMHC) and anti-CD28 antibody, the inventors first isolated CD8+ T cells from fresh HLA-A*02 leukapheresis products via positive selection using CD8 microbeads (Miltenyi Biotec, Bergisch-Gladbach, Germany) of healthy donors obtained from the University clinics Mannheim, Germany, after informed consent.
# PBMCs and isolated CD8+ lymphocytes were incubated in T-cell medium (TCM) until use consisting of RPMI-Glutamax (Invitrogen, Karlsruhe, Germany) supplemented with 10% heat inactivated human AB serum (PAN-Biotech, Aidenbach, Germany), 100 U/ml Penicillin/100 μg/ml Streptomycin (Cambrex, Cologne, Germany), 1 mM sodium pyruvate (CC Pro, Oberdorla, Germany), 20 μg/ml Gentamycin (Cambrex). 2.5 ng/ml IL-7 (PromoCell, Heidelberg, Germany) and 10 U/ml IL-2 (Novartis Pharma, Nümberg, Germany) were also added to the TCM at this step.
# Generation of pMHC/anti-CD28 coated beads, T-cell stimulations and readout was performed in a highly defined in vitro system using four different pMHC molecules per stimulation condition and 8 different pMHC molecules per readout condition.
# The purified co-stimulatory mouse IgG2a anti human CD28 Ab 9.3 (Jung et al., 1987) was chemically biotinylated using Sulfo-N-hydroxysuccinimidobiotin as recommended by the manufacturer (Perbio, Bonn, Germany). Beads used were 5.6 μm diameter streptavidin coated polystyrene particles (Bangs Laboratories, Illinois, USA).
# 800.000 beads/200 μl were coated in 96-well plates in the presence of 4×12.5 ng different biotin-pMHC, washed and 600 ng biotin anti-CD28 were added subsequently in a volume of 200 μl. Stimulations were initiated in 96-well plates by co-incubating […] CD8+ T cells with 2×10^5 washed coated beads in 200 μl TCM supplemented with 5 ng/ml IL-12 (PromoCell) for 3 days at 37° C. Half of the medium was then exchanged by fresh TCM supplemented with 80 U/ml IL-2 and incubating was continued for 4 days at 37° C. This stimulation cycle was performed for a total of three times. For the pMHC multimer readout using 8 different pMHC molecules per condition, a two-dimensional combinatorial coding approach was used as previously described (Andersen et al., 2012) with minor modifications encompassing coupling to 5 different fluorochromes. Finally, multimeric analyses were performed by staining the cells with Live/dead near IR dye (Invitrogen, Karlsruhe, Germany), CD8-FITC antibody clone SK1 (BD, Heidelberg, Germany) and fluorescent pMHC multimers. For analysis, a BD LSRII SORP cytometer equipped with appropriate lasers and filters was used. Peptide specific cells were calculated as percentage of total CD8+ cells. Evaluation of multimeric analysis was done using the FlowJo software (Tree Star, Oreg., USA). In vitro priming of specific multimer+CD8+ lymphocytes was detected by comparing to negative control stimulations.
Peptide exchange (HLA-A*02:01),Substance,Wells positive [%] (CD8+ T cells)
++++ (≥75% = ++++),101 (KLPEGHLPEV; listed as Homo sapiens) [compound 101],+ (<20% = +)
++++ (≥75% = ++++),74 (TLLSYSIPL; listed as Homo sapiens) [compound 74],+ (<20% = +)
++++ (≥75% = ++++),48 (MLAEIHPKA; listed as Homo sapiens) [compound 48],+++ (50-69% = +++)
++++ (≥75% = ++++),49 (FLWDPRDVVL; listed as Homo sapiens) [compound 49],+ (<20% = +)
++++ (≥75% = ++++),65 (IAISQLTFV; listed as Homo sapiens) [compound 65],+ (<20% = +)
++++ (≥75% = ++++),47 (ALLPGVPGL; listed as Homo sapiens) [compound 47],++ (20-49% = ++)
++++ (≥75% = ++++),96 (KIIEDLANTV; listed as Homo sapiens) [compound 96],++ (20-49% = ++)
++++ (≥75% = ++++),51 (GLLTQVHIL; listed as Homo sapiens) [compound 51],+ (<20% = +)
++++ (≥75% = ++++),50 (GLASYLDRV; listed as Homo sapiens) [compound 50],+ (<20% = +)
++++ (≥75% = ++++),68 (KLLADAFKV; listed as Homo sapiens) [compound 68],++++ (≥70% = ++++)
++++ (≥75% = ++++),46 (AMVEIIPKV; listed as Homo sapiens) [compound 46],+ (<20% = +)

# The remaining lines, values behind:
Substance,Peptide exchange (HLA-A*02:01),Wells positive [%] (CD8+ T cells)
37 (KILDEFYNV; listed as Homo sapiens) [compound 37],++++ (≥75% = ++++),+++ (50-69% = +++)
33 (FASERPPSV; listed as Homo sapiens) [compound 33],++++ (≥75% = ++++),+++ (50-69% = +++)
1 (KLLDFSTRI; listed as Homo sapiens) [compound 1],++++ (≥75% = ++++),+ (<20% = +)
18 (KMMTFFQGL; listed as Homo sapiens) [compound 18],++++ (≥75% = ++++),++++ (≥70% = ++++)
31 (VVLPIVITL; listed as Homo sapiens) [compound 31],++++ (≥75% = ++++),++ (20-49% = ++)
36 (FQVTRTTGV; listed as Homo sapiens) [compound 36],++++ (≥75% = ++++),+ (<20% = +)
29 (LLWEFPSMA; listed as Homo sapiens) [compound 29],++++ (≥75% = ++++),++ (20-49% = ++)
38 (SLSAWLPSL; listed as Homo sapiens) [compound 38],++++ (≥75% = ++++),+ (<20% = +)
19 (MLLPWLPKL; listed as Homo sapiens) [compound 19],++++ (≥75% = ++++),+++ (50-69% = +++)
26 (KLWTSLVNL; listed as Homo sapiens) [compound 26],++++ (≥75% = ++++),+++ (50-69% = +++)
4 (YLGDSHVLL; listed as Homo sapiens) [compound 4],++++ (≥75% = ++++),+ (<20% = +)
7 (ALWEEVKATSL; listed as Homo sapiens) [compound 7],++++ (≥75% = ++++),+ (<20% = +)
13 (FLDEGSLLRL; listed as Homo sapiens) [compound 13],++++ (≥75% = ++++),+ (<20% = +)
2 (ALLDVLVKL; listed as Homo sapiens) [compound 2],++++ (≥75% = ++++),+ (<20% = +)
6 (ALHDSPVYL; listed as Homo sapiens) [compound 6],++++ (≥75% = ++++),++ (20-49% = ++)
3 (FLLVPSPIWQL; listed as Homo sapiens) [compound 3],++++ (≥75% = ++++),+ (<20% = +)
